Test results: publication PMC9472132 (Journal for Immunotherapy of Cancer, 2022)
Like-named read-outs stand apart in the source and are kept apart here.

How the values were obtained:
[1] = molecular target: T1, human CD27 expressed on CHO-K1 cells (human, UniProt P26842); assay: ELISA
[2] = molecular target: rhesus monkey CD27 expressed on CHO-K1 cells (Macaca mulatta, UniProt F7BYS2); assay: ELISA
[3] = molecular target: T2, rhesus monkey CD27 on primary peripheral blood T cells (Macaca mulatta, UniProt F7BYS2); assay: flow cytometry on cells
[4] = molecular target: T3, human CD27 on primary peripheral blood T cells (Homo sapiens (Human)., UniProt P26842); assay: flow cytometry on cells
[5] = molecular target: T2, rhesus monkey CD27 on primary …; assay: flow cytometry on cells; remark: listed apart in the source
[6] = molecular target: T3, human CD27 on primary peripheral blood …; assay: flow cytometry on cells; remark: listed apart in the source
[7] = molecular target: human CD27-IgG fusion protein (Homo sapiens (Human)., UniProt P26842); assay: SPR
[8] = molecular target: rhesus monkey CD27-IgG fusion protein (Macaca mulatta, UniProt F7BYS2); assay: SPR
[9] = molecular target: T1, human CD27 expressed on CHO-K1 cells; assay: flow cytometry on cells

EC50 [1] [nM]	EC50 [2] [nM]	EC50 [3] [nM]	EC50 [4] [nM]	EC50 [5] [nM]	EC50 [6] [nM]	Kd [7] [nM]	koff [7] [s⁻¹]	kon [7] [M⁻¹ s⁻¹]	Kd [8] [nM]	koff [8] [s⁻¹]	kon [8] [M⁻¹ s⁻¹]	IC50 [9] [nM]	Binder
0.325	0.193	1.58	1.54	1.92	1.3	0.63	0.00012	190000	0.97	0.00022	230000	2.85	varlilumab analog (anti-CD27 fully human IgG1 antibody, made in-house from published patented sequences) (antibody, V domains shown) VH: QVQLVESGGGVVQPGRSLRLSCAASGFTFSSYDMHWVRQAPGKGLEWVAVIWYDGSNKYYADSVKGRFTISRDNSKNTLYLQMNSLRAEDTAVYYCARGSGNWGFFDYWGQGTLVTVSS VL: DIQMTQSPSSLSASVGDRVTITCRASQGISRWLAWYQQKPEKAPKSLIYAASSLQSGVPSRFSGSGSGTDFTLTISSLQPEDFATYYCQQYNTYPRTFGQGTKVEIK
0.072	0.054	0.17	0.32	0.22	0.3	5.1	0.0011	220000	4.3	0.001	230000	0.24	MK-5890 (humanized anti-human CD27 agonist antibody, hIgG1) (antibody, V domains shown) VH: EIQLVQSGAEVKKPGASVKVSCKASGYTFTNYGMNWVKQAPGQGLKWMGWINTNTGEPTYAEEFKGRFTFTLDTSISTAYMELSSLRSEDTAVYYCAREGDAMDYWGQGTTVTVSS VL: EIVLTQSPATLSLSPGERATLSCSASSSVSYMHWYQQKPGQAPKRWIYDTSKLASGVPARFSGSGSGTDYSLTISSLEPEDFAVYYCQQWNSYPFTFGQGTKLEIK
